Test results reported in PMC3642092 (FEBS Open Bio, 2012).

B1: UTR261^T36C/S242C, oxidised (intra-chain disulphide, locked closed) (domain or fragment)
chain: MAKYGEHEASPDNGQNEFSDIIKSRSDEHNDVQKKCFTKWINARFSKSGKPPINDMFTDLKDGRKLLDLLEGLTGTSLPKERGSTRVHALNNVNRVLQVLHQNNVELVNIGGTDIVDGNHKLTLGLLWSIILHWQVKDVMKDVMSDLQQTNSEKILLSWVRQTTRPYSQVNVLNFTTSWTDGLAFNAVLHRHKPDLFSWDKVVKMSPIERLEHAFSKAQTYLGIEKLLDPEDVAVQLPDKKCIIMYLTSLFEVLPQQVTID
modifications: intra-chain disulphide between the engineered cysteines C36 and C242
B2: UTR261^T36C/S242C, reduced (domain or fragment)
chain: B1 chain

Target: F-actin (filamentous rabbit skeletal muscle actin) (rabbit, UniProt P68135 1-377)
Test: co-sedimentation

| Binder | Kd [µM] |
| --- | --- |
| B1 | 123 ± 14 |
| B2 | 74.8 ± 19 |
